Blank lines part the entries; values can stand above or below the substance they belong to.
Assays:
[1] = biological target: recombinant rat VISTA (His-tagged) (rat); assay: ELISA, plate coated with rat VISTA
[2] = biological target: recombinant cynomolgus macaque VISTA (His-tagged) (cynomolgus macaque); assay: ELISA, plate coated with cyno VISTA
[3] = biological target: recombinant human VISTA (His-tagged) (human) (UniProt Q9H7M9); assay: ELISA, plate coated with human VISTA
[4] = biological target: recombinant mouse VISTA (His-tagged) (mouse) (UniProt Q9D659); assay: ELISA, plate coated with mouse VISTA
[5] = biological target: recombinant human VISTA (His-tagged) (human) (UniProt Q9H7M9); assay: ELISA, plate coated with human VISTA; unit nM from the legend paragraph 697
[6] = biological target: recombinant mouse VISTA (His-tagged) (mouse) (UniProt Q9D659); assay: ELISA, plate coated with mouse VISTA; unit nM from the legend paragraph 697
[7] = biological target: recombinant human VISTA (His-tagged) (human) (UniProt Q9H7M9); assay: ELISA, plate coated with human VISTA; unit nM from the legend paragraph 698
[8] = biological target: recombinant mouse VISTA (His-tagged) (mouse) (UniProt Q9D659); assay: ELISA, plate coated with mouse VISTA; unit nM from the legend paragraph 698
[9] = biological target: recombinant human VISTA (His-tagged) (human) (UniProt Q9H7M9); assay: ELISA, plate coated with human VISTA; unit nM from the legend paragraph 699
[10] = biological target: recombinant mouse VISTA (His-tagged) (mouse) (UniProt Q9D659); assay: ELISA, plate coated with mouse VISTA; unit nM from the legend paragraph 699
[11] = biological target: human VISTA expressed on cells (human) (UniProt Q9H7M9); assay: flow cytometry, FITC-A; HEK293 VISTA O/E cells (unstained cells: MFI 0.12)
[12] = biological target: human FcγRIII (CD16a) (human) (UniProt P08637); assay: ELISA, plate coated with human CD16a (FcγRIII), detection with HRP anti-human Fc antibody
Fc-tagged VSIG-3 = Fc-tagged VSIG-3 (UniProt Q5DX21); assay: BLI, 100 nM Fc-tagged VSIG-3 on anti-human Fc biosensor, VISTA as analyte from 3000 nM

recombinant mouse VISTA (His-tagged) (mouse), sequence (Q9D659 33-191 limits assumed): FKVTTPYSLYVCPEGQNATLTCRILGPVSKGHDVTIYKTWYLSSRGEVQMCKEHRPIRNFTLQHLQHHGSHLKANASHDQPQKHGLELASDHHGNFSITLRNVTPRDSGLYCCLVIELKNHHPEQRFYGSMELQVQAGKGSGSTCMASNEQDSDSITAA
human FcγRIII (CD16a) (human), sequence (P08637 17-208 limits assumed): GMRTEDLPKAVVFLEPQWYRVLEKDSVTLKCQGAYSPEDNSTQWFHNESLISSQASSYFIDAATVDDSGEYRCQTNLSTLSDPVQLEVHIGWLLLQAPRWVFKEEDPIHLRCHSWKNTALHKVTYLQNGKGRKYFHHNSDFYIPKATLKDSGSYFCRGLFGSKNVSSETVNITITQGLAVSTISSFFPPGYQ

EC50 [1]: > 33 nM
EC50 [2]: > 33 nM
EC50 [3]: > 33 nM
EC50 [4]: > 33 nM
EC50 [5]: 152 nM
EC50 [6]: 77 nM
EC50 [7]: > 200 nM
EC50 [8]: > 200 nM
EC50 [9]: 98.5 nM
EC50 [10]: > 200 nM
Substance: Human isotype (antibody)

MFI [11]: 0.06
Substance: Isotype (antibody)

EC50 (read off the curve) [12]: 1 nM
Substance: hIgG1 Isotype Control (antibody)

Kd (Fc-tagged VSIG-3): 5280 nM
Substance: recombinant human VISTA (His-tagged) (from UniProt Q9H7M9 33-194) (receptor)

Source: patent US20250313631A1
